Literature values as cited in PMC9618554.

Target: insulin receptor site-2' (Homo sapiens) (UniProt P06213)

Sequence of insulin (P01308 90-110): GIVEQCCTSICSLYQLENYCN

Kd: 400 nM
Substance: insulin (from UniProt P01308)
